Assay results taken from PMC9376091 (Scientific Reports, 2022).
Values joined by “and” are separate entries in the source; they are usually repeats but may differ in a detail not shown here. Equal values may be shown once.

Target: the molecule itself
Test: AUC

B1: homoserine acetyl transferase (HSAT, MetX, Rv3341) from M. tuberculosis, recombinant (His)6-MetX (enzyme)
chain: MTISDVPTQTLPAEGEIGLIDVGSLQLESGAVIDDVCIAVQRWGKLSPARDNVVVVLHALTGDSHITGPAGPGHPTPGWWDGVAGPGAPIDTTRWCAVATNVLGGCRGSTGPSSLARDGKPWGSRFPLISIRDQVQADVAALAALGITEVAAVVGGSMGGARALEWVVGYPDRVRAGLLLAVGARATADQIGTQTTQIAAIKADPDWQSGDYHETGRAPDAGLRLARRFAHLTYRGEIELDTRFANHNQGNEDPTAGGRYAVQSYLEHQGDKLLSRFDAGSYVILTEALNSHDVGRGRGGVSAALRACPVPVVVGGITSDRLYPLRLQQELADLLPGCAGLRVVESVYGHDGFLVETEAVGELIRQTLGLADREGACRR
stoichiometry N: 2 and 4
